Laboratory results taken from paper PMC5036783 (Biophysics, 2011).

Key:
Test in all cases: pull-down; Ni-NTA resin holding histidine tagged fusion pHtrII from cell-free translation; untagged ppR 0.8 mM and pHtrII 0.08 mM mixed in buffer S (300 mM NaCl, 50 mM MES, 5 mM imidazole, pH 6.5) with 0.1% DDM, 1 h, room temperature; eluted ppR read by absorbance at 498 nm
Conditions in all cases: one partner purified
[1] = target: T1, glutathione S-transferase-tagged pHtrII 1-114 (cell-free) (Natronomonas pharaonis, UniProt P42259 1-114)
T1 sequence (looked up): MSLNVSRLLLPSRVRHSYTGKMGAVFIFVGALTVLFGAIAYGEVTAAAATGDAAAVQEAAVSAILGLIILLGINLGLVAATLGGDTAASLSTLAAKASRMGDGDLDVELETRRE

[2] = target: T2, thioredoxin-tagged pHtrII 1-114 (cell-free) (Natronomonas pharaonis, UniProt P42259 1-114)
T2 sequence (looked up): T1 sequence (looked up)

[3] = target: T3, green fluorescent protein-tagged pHtrII 1-114 (cell-free) (Natronomonas pharaonis, UniProt P42259 1-114)
T3 sequence (looked up): T1 sequence (looked up)

Measured: binding activity relative to pHtrII expressed in E. coli

B1: pharaonis phoborhodopsin (ppR), untagged (natural protein, Natronomonas pharaonis, UniProt P42196 1-239, looked up)
chain: MVGLTTLFWLGAIGMLVGTLAFAWAGRDAGSGERRYYVTLVGISGIAAVAYVVMALGVGWVPVAERTVFAPRYIDWILTTPLIVYFLGLLAGLDSREFGIVITLNTVVMLAGFAGAMVPGIERYALFGMGAVAFLGLVYYLVGPMTESASQRSSGIKSLYVRLRNLTVILWAIYPFIWLLGPPGVALLTPTVDVALIVYLDLVTKVGFGFIALDAAATLRAEHGESLAGVDTDAPAVAD
~50%: all assays above
